Assay results reported in patent publication US20070092942.

Columns and labels:
[1] = biological target: Ub C-terminal 7-amido-4-methylcoumarin, P0CG47
[2] = biological target: isopeptide-linked SUMO-1-peptide conjugate, P63165
[3] = biological target: His-tagged Lys^63-linked polyubiquitin, P0CG47
[4] = biological target: isopeptide-linked ISG15-peptide conjugate, P05161
[5] = biological target: His-tagged Lys^48-linked polyubiquitin, P0CG47
[6] = biological target: isopeptide-linked Nedd8-peptide conjugate, Q15843
[7] = biological target: isopeptide-linked Ub-peptide conjugate, P0CG47
Sequence of isopeptide-linked Ub-peptide conjugate, P0CG47 (P0CG47 whole entry, looked up, tested part not stated): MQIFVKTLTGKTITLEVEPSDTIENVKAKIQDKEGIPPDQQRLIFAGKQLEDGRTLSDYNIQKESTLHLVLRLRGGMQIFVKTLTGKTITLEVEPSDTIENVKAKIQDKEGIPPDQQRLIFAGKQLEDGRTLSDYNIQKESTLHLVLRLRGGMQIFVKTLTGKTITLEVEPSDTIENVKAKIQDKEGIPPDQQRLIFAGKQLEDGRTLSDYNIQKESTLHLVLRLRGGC

Sequence of Ub C-terminal 7-amido-4-methylcoumarin, P0CG47 (P0CG47 whole entry, looked up): as the sequence (P0CG47 whole entry, looked up, tested part not stated) above
Sequence of His-tagged Lys^63-linked polyubiquitin, P0CG47 (P0CG47 whole entry, looked up): as the sequence (P0CG47 whole entry, looked up, tested part not stated) above
Sequence of His-tagged Lys^48-linked polyubiquitin, P0CG47 (P0CG47 whole entry, looked up): as the sequence (P0CG47 whole entry, looked up, tested part not stated) above
Sequence of isopeptide-linked ISG15-peptide conjugate, P05161 (P05161 1-157): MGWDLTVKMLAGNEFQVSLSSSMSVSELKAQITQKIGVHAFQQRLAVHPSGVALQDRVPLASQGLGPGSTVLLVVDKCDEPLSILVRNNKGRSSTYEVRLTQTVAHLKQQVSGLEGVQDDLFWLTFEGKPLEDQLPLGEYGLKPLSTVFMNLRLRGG
Sequence of isopeptide-linked Nedd8-peptide conjugate, Q15843 (Q15843 whole entry, looked up, tested part not stated): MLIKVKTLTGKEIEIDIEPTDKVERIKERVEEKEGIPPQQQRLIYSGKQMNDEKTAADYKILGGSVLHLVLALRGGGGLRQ
Sequence of isopeptide-linked SUMO-1-peptide conjugate, P63165 (P63165 1-97): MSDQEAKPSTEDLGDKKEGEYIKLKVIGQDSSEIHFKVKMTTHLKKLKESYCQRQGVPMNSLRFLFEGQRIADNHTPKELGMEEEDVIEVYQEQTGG

Row | Protein | UbAMC hydrolysis [1] | isopeptidase assay, loss of biotin signal [2] | Ub-AMC cleavage, turnover number [1] [min⁻¹] | polyubiquitin chain depolymerization, anti-His immunoblot [3] | isopeptidase assay, loss of biotin signal [4] | polyubiquitin chain depolymerization, anti-His immunoblot [5] | isopeptidase assay, loss of biotin signal [6] | isopeptidase assay, loss of biotin signal [7]
1 | EBV205 (protein) MSNGDWGQSQRTRGTGPVRGIRTMDVNAPGGGSGGSALRILGTASCNQAHCKFGRFAGIQCVSNCVLYLVKSFLAGRPLTSRPELDEVLDEGARLDALMRQSGILKGHEMAQLTDVPSSVVLRGGGRVHIYRSAEIFGLVLFPAQIANSAVVQSLAEVLHGSYNGVAQFILYICDIYAGAIIIETDGSFYLFDPHCQKDAAPGTP | efficiently hydrolyzed UbAMC |  |  |  |  |  |  | 
2 | EBV205 C61A (protein) MSNGDWGQSQRTRGTGPVRGIRTMDVNAPGGGSGGSALRILGTASCNQAHCKFGRFAGIQAVSNCVLYLVKSFLAGRPLTSRPELDEVLDEGARLDALMRQSGILKGHEMAQLTDVPSSVVLRGGGRVHIYRSAEIFGLVLFPAQIANSAVVQSLAEVLHGSYNGVAQFILYICDIYAGAIIIETDGSFYLFDPHCQKDAAPGTP | absent in the case of active site mutants |  |  |  |  |  |  | 
3 | His6UL36^USP (protein) MGGGNNTNPGGPVHKQAGSLASRAHMIAGTPPHSTMERGGDRDIVVTGARNQFAPDLEPGGSVSCMRSSLSFLSLIFDVGPRDVLSAEAIEGCLVEGGEWTRATAGPGPPRMCSIVELPNFLEYPGARGGLRCVFSRVYGEVGFFGEPAAGLLETQCPAHTFFAGPWALRPLSYTLLTIGPLGMGLFRDGDTAYLFDPHGLPEGTPAFIAKVRAGDMYPYLTYYTRDRPDVRWAGAMVFFVPSGPEPAAPADLTAAALHLYGASETYLQDEAFSERRVAITHPLRGEIAGLGEPCVGVGPREGVGGPGPHPPTAAQSPPPTRARRDDRASETSRGTAGPSAKPEAKRPNRAPDDVWAVALKGTPPTDPPSADPPSADPPSAIPPPPPSAPKTPAAEAAEEDDDDMRVLEMGVVPVGRHRARYSAGLPKRRRPTWTPPSSVEDLTSGEKTKRSAPPAKTKKKSTPKGKTPVGAAVPASVPEPVLASAPPDPAGPPVAEAGEDDGPTVPASSQALEALKTRRSPEPPGADLAQLF |  | Isopeptide-linked conjugates of Nedd8, ISG15 or SUMO-1 are not substrates for UL36^USP | ~6 | The failure of UL36^USP to cleave Lys^63-linked polyUb | Isopeptide-linked conjugates of Nedd8, ISG15 or SUMO-1 are not substrates for UL36^USP | we observed deubiquitination of Lys^48-linked polyUb only | Isopeptide-linked conjugates of Nedd8, ISG15 or SUMO-1 are not substrates for UL36^USP | results in cleavage of the Ub-peptide conjugate only
